Experiments:
TSHR coated onto tubes [1] = biological target: T1, TSHR coated onto tubes (human, UniProt P16473 21-764, limits assumed); assay: TSHR coated tubes, competitor 125I-M22 IgG
T1 construct: whole entry named; also called TSHR coated tubes; thyrotropin receptor

[2] = biological target: wild type human TSHR (human) (UniProt P16473); assay: cell-based or functional assay
[3] = biological target: human TSHR expressed on CHO cells (human) (UniProt P16473); assay: cell-based or functional assay
[4] = biological target: human TSHR (wild type) expressed in CHO cells (human) (UniProt P16473); assay: cell-based or functional assay
TSHR coated onto tubes [5] = biological target: T1, TSHR coated onto tubes; assay: TSHR coated tubes, competitor 125I-5C9 IgG
TSHR coated onto tubes [6] = biological target: T1, TSHR coated onto tubes; assay: TSHR coated tubes, competitor 125I-TSH

B1: 9D33 IgG (antibody, V domains shown)
VH: DVQIQQPGTELVKPGASVRLSCKASGYTFTTYWMHWVKQRPGQGLEWIGEIDPSDSYTNYNQKFKGKATLTVDKSSSTAYMHLSSLTSEDSAVYYCSRNYGSGYYFDYWGQGTTLTVSS
VL: GVEMTQSPAIMSASPGEKVTMTCSASSSVSYMHWYQQKSGTSPKRWIYDTSKLASGVPARFSGSGSGTSYSLTISSMETEDAATYYCQQWSSNPWTFGGGTKLEIK
% inhib of 125I-M22 IgG binding at 0.01 µg/mL (TSHR coated onto tubes [1]): 13% | % inhib of 125I-M22 IgG binding at 0.1 µg/mL (TSHR coated onto tubes [1]): 27% | % inhib of 125I-M22 IgG binding at 1 µg/mL (TSHR coated onto tubes [1]): 48% | % inhib of 125I-M22 IgG binding at 10 µg/mL (TSHR coated onto tubes [1]): 60% | % inhib of 125I-M22 IgG binding at 100 µg/mL (TSHR coated onto tubes [1]): 61% | cyclic AMP; 100 µg/mL 9D33 IgG only (fmol/cell well) [2]: 534 | cyclic AMP; T21 + 0.001 µg/mL 9D33 IgG (fmol/cell well) [2]: 10200 | cyclic AMP; T21 + 0.01 µg/mL 9D33 IgG (fmol/cell well) [2]: 10800 | cyclic AMP; T21 + 0.1 µg/mL 9D33 IgG (fmol/cell well) [2]: 8720 | cyclic AMP; T21 + 1 µg/mL 9D33 IgG (fmol/cell well) [2]: 1380 | cyclic AMP; T21 + 10 µg/mL 9D33 IgG (fmol/cell well) [2]: 605 | cyclic AMP; T21 + 100 µg/mL 9D33 IgG (fmol/cell well) [2]: 442 | Cyclic AMP, serum T1 + 0.001 µg/mL 9D33 IgG (fmol/cell well) [3]: 21600 | Cyclic AMP, serum T1 + 0.01 µg/mL 9D33 IgG (fmol/cell well) [3]: 19900 | Cyclic AMP, serum T1 + 0.1 µg/mL 9D33 IgG (fmol/cell well) [3]: 17900 | Cyclic AMP, serum T1 + 1 µg/mL 9D33 IgG (fmol/cell well) [3]: 4990 | Cyclic AMP, serum T1 + 10 µg/mL 9D33 IgG (fmol/cell well) [3]: 1460 | Cyclic AMP, serum T3 + 0.001 µg/mL 9D33 IgG (fmol/cell well) [3]: 12200 | Cyclic AMP, serum T3 + 0.01 µg/mL 9D33 IgG (fmol/cell well) [3]: 12200 | Cyclic AMP, serum T3 + 0.1 µg/mL 9D33 IgG (fmol/cell well) [3]: 12000 | Cyclic AMP, serum T3 + 1 µg/mL 9D33 IgG (fmol/cell well) [3]: 7380 | Cyclic AMP, serum T3 + 10 µg/mL 9D33 IgG (fmol/cell well) [3]: 4260 | Cyclic AMP, serum T6 + 0.001 µg/mL 9D33 IgG (single determination) (fmol/cell well) [3]: 10300 | Cyclic AMP, serum T6 + 0.01 µg/mL 9D33 IgG (fmol/cell well) [3]: 10300 | Cyclic AMP, serum T6 + 0.1 µg/mL 9D33 IgG (fmol/cell well) [3]: 8700 | Cyclic AMP, serum T6 + 1 µg/mL 9D33 IgG (fmol/cell well) [3]: 5450 | Cyclic AMP, serum T6 + 10 µg/mL 9D33 IgG (fmol/cell well) [3]: 2260 | Cyclic AMP, serum T19 + 0.001 µg/mL 9D33 IgG (fmol/cell well) [3]: 7090 | Cyclic AMP, serum T19 + 0.01 µg/mL 9D33 IgG (mean of duplicate) (fmol/cell well) [3]: 5760 | Cyclic AMP, serum T19 + 0.1 µg/mL 9D33 IgG (mean of duplicate) (fmol/cell well) [3]: 2390 | Cyclic AMP, serum T19 + 1 µg/mL 9D33 IgG (fmol/cell well) [3]: 404 | Cyclic AMP, serum T19 + 10 µg/mL 9D33 IgG (fmol/cell well) [3]: 448 | Cyclic AMP, serum T20 + 0.001 µg/mL 9D33 IgG (fmol/cell well) [3]: 7510 | Cyclic AMP, serum T20 + 0.01 µg/mL 9D33 IgG (fmol/cell well) [3]: 5390 | Cyclic AMP, serum T20 + 0.1 µg/mL 9D33 IgG (fmol/cell well) [3]: 5360 | Cyclic AMP, serum T20 + 1 µg/mL 9D33 IgG (mean of duplicate) (fmol/cell well) [3]: 980 | Cyclic AMP, serum T20 + 10 µg/mL 9D33 IgG (fmol/cell well) [3]: 204 | cyclic AMP production; 9D33 IgG 100 µg/mL + M22 Fab 3 ng/mL (fmol/cell well) [4]: 1050 | cyclic AMP production; 9D33 IgG 100 µg/mL + pTSH 3 ng/mL (fmol/cell well) [4]: 2220 | cyclic AMP production; 9D33 IgG 100 µg/mL only (fmol/cell well) [4]: 626 | % inhib of 125I-5C9 IgG binding at 0.01 µg/mL (TSHR coated onto tubes [5]): 13% | % inhib of 125I-5C9 IgG binding at 0.1 µg/mL (TSHR coated onto tubes [5]): 29% | % inhib of 125I-5C9 IgG binding at 1 µg/mL (TSHR coated onto tubes [5]): 48% | % inhib of 125I-5C9 IgG binding at 10 µg/mL (TSHR coated onto tubes [5]): 60% | % inhib of 125I-5C9 IgG binding at 100 µg/mL (TSHR coated onto tubes [5]): 70% | % inhib of 125I-TSH binding at 0.01 µg/mL (TSHR coated onto tubes [6]): 8% | % inhib of 125I-TSH binding at 0.1 µg/mL (TSHR coated onto tubes [6]): 31% | % inhib of 125I-TSH binding at 1 µg/mL (TSHR coated onto tubes [6]): 55% | % inhib of 125I-TSH binding at 10 µg/mL (TSHR coated onto tubes [6]): 65% | % inhib of 125I-TSH binding at 100 µg/mL (TSHR coated onto tubes [6]): 69%

B2: 2B4 IgG (antibody, V domains shown)
VH: DVQLQQSGTVLARPGASVRMSCKASGYSFTRYWIHWLKQRPGQGLEWIGAIFPGNRDTSYNQRFKGKAEVTAVTSASTAYLDLSSLTNEDSAVYYCTRWPYYGSIYVNFDYWGQGTTLTVSS
VL: DIVMTQSPLSLPVSLGDQASISCRTSQNLVHRNGNTYLHWYLQKPGQSPKLLIYKISNRFSGVPDRFSGSGSGTDFTLKISRVEAEDLGVYFCSQGTHVPPTFGGGTKLEIKR
% inhib of 125I-M22 IgG binding at 0.01 µg/mL (TSHR coated onto tubes [1]): 1% | % inhib of 125I-M22 IgG binding at 0.1 µg/mL (TSHR coated onto tubes [1]): 12% | % inhib of 125I-M22 IgG binding at 1 µg/mL (TSHR coated onto tubes [1]): 9% | % inhib of 125I-M22 IgG binding at 10 µg/mL (TSHR coated onto tubes [1]): 19% | % inhib of 125I-M22 IgG binding at 100 µg/mL (TSHR coated onto tubes [1]): 30% | % inhib of 125I-5C9 IgG binding at 0.01 µg/mL (TSHR coated onto tubes [5]): 8% | % inhib of 125I-5C9 IgG binding at 0.1 µg/mL (TSHR coated onto tubes [5]): 23% | % inhib of 125I-5C9 IgG binding at 1 µg/mL (TSHR coated onto tubes [5]): 42% | % inhib of 125I-5C9 IgG binding at 10 µg/mL (TSHR coated onto tubes [5]): 48% | % inhib of 125I-5C9 IgG binding at 100 µg/mL (TSHR coated onto tubes [5]): 72% | % inhib of 125I-TSH binding at 0.01 µg/mL (TSHR coated onto tubes [6]): 13.5% | % inhib of 125I-TSH binding at 0.1 µg/mL (TSHR coated onto tubes [6]): 56% | % inhib of 125I-TSH binding at 1 µg/mL (TSHR coated onto tubes [6]): 82% | % inhib of 125I-TSH binding at 10 µg/mL (TSHR coated onto tubes [6]): 85% | % inhib of 125I-TSH binding at 100 µg/mL (TSHR coated onto tubes [6]): 88.5%

B3: 14D3 IgG (antibody, V domains shown)
VH: DVQMQQPGPELVKPGASLKMSCKASGYSFTGYNMHWVKQSHGKSLEWIGYIDPYSGATSYNQKFEGKATLTVDKSSSTAYMQLNSLTSEDSAVYYCARRWDWDPYAMDYWGQGTSVTVSS
VL: NILMTQSPAILSVSPGERVSFACRASQSIGTSIHWYQQRTNGSPRLLIKYASESISGIPSRFSGSGSGTDFTLSINSVESEDIADYYCQQTNRWPLTFGAGTKLELKR
% inhib of 125I-M22 IgG binding at 0.01 µg/mL (TSHR coated onto tubes [1]): 3% | % inhib of 125I-M22 IgG binding at 0.1 µg/mL (TSHR coated onto tubes [1]): 15% | % inhib of 125I-M22 IgG binding at 1 µg/mL (TSHR coated onto tubes [1]): 37% | % inhib of 125I-M22 IgG binding at 10 µg/mL (TSHR coated onto tubes [1]): 60% | % inhib of 125I-M22 IgG binding at 100 µg/mL (TSHR coated onto tubes [1]): 62% | % inhib of 125I-5C9 IgG binding at 0.01 µg/mL (TSHR coated onto tubes [5]): 1% | % inhib of 125I-5C9 IgG binding at 0.1 µg/mL (TSHR coated onto tubes [5]): 10% | % inhib of 125I-5C9 IgG binding at 1 µg/mL (TSHR coated onto tubes [5]): 35% | % inhib of 125I-5C9 IgG binding at 10 µg/mL (TSHR coated onto tubes [5]): 50.5% | % inhib of 125I-5C9 IgG binding at 100 µg/mL (TSHR coated onto tubes [5]): 63% | % inhib of 125I-TSH binding at 0.01 µg/mL (TSHR coated onto tubes [6]): 4% | % inhib of 125I-TSH binding at 0.1 µg/mL (TSHR coated onto tubes [6]): 12.5% | % inhib of 125I-TSH binding at 1 µg/mL (TSHR coated onto tubes [6]): 37% | % inhib of 125I-TSH binding at 10 µg/mL (TSHR coated onto tubes [6]): 52% | % inhib of 125I-TSH binding at 100 µg/mL (TSHR coated onto tubes [6]): 57%
